From PMC6150820 (ACS chemical biology, 2018)
pEC50: −log10 of the molar value.

Assays:
[1] = biological target: T1, E. faecalis Fsr QS circuit (gelE promoter) (Enterococcus faecalis, UniProt A0ACD6TCR9); format: cell-based, E. faecalis TX5274; details: EC50 ratio relative to GBAP; for Fold Change relative to GBAP, loss in potency: parentheses = loss
[2] = biological target: T1, E. faecalis Fsr QS circuit (gelE promoter); details: cited from earlier work; for pEC50: read-out: EC50 [95% CI], previously published analog shown for comparison
[3] = system: wild type E. faecalis cells (strain TX4002); experiment: Biofilm formation phenotypic assay; format: cell-based; details: exogenous GBAP added to wild type TX4002 cells

GBAP-Des(Q1N2) lactam (SPNIFGQWM; head-to-tail lactam cyclization) [Peptide 11]
Fold Change relative to GBAP, loss in potency [1]: (> 10,000) fold
agonist activity [2]: completely inactive
pEC50 [2]: < 5.00

Ac-GBAP-Des(Q1N2) (SPNIFGQWM; not fully specified; N-acetyl tail; lactone macrocycle) [Peptide 10]
Fold Change relative to GBAP, improvement in potency ([1]; no parentheses = improvement): 1.1 fold
pEC50 [2]: 9.00

GBAP-G8A [Peptide 2]
Fold Change relative to GBAP, loss in potency [1]: (> 10,000) fold
agonist activity [2]: complete loss of activity
pEC50 [2]: < 5.00

GBAP-f7 [Peptide 4]
pEC50 [2]: 8.30

GBAP-s3 [Peptide 12]
pEC50 [2]: 7.35

GBAP (SPNIFGQWM; not fully specified; N-terminal QN tail; lactone macrocycle) [Peptide 1, reference compound]
pEC50 [2]: 8.94
increase in the amount of biofilm formation [3]: 30–50%
